Experimental findings from publication PMC6262856 are described below.

The target of the assay is biotin-15d-PGJ2. As to the kind of experiment: biotin pull-down (avidin) with western-blot quantification (ImageJ). The conditions noted are these: 293T cells transfected with FLAG-eIF4A1s.

As for “FLAG-eIF4A1 (from UniProt P60842) C264S; R295A”, the ratio to parent was determined as 0.03.
FLAG-eIF4A1 (from UniProt P60842) R295A: the ratio to parent came out at 2.35.
Consider FLAG-eIF4A1 (from UniProt P60842) C264S, for which the ratio to parent is 0.17.
